These results are taken from paper PMC11779849, “Outside-in engineering of cadherin endocytosis using a conformation strengthening antibody” (Nature Communications, 2025).

Test [1] concerns the target T1, wild-type human P-cadherin ectodomain (EC1-5) (human, UniProt P22223, biotin on the Avi-tag (BirA enzyme)).
T1 construct: signal peptide in the construct; human P-cadherin (placental cadherin), complete extracellular region EC1-5, ectodomain (1-654); Cloned into pcDNA3.1(+); residue numbers W2, K14 count on the mature protein; also called Pcad WT; WT Pcad; source: Expi293 suspension cells, transfected, purified from conditioned media (Ni-NTA), biotinylated with BirA; not shown: Avi-tag, C-terminal, kept
The test is described as follows: single-molecule AFM force spectroscopy; as the -CQY experiment but with 40 nM CQY684 Fab in the buffer (+CQY); Pcad EC1-5 on cantilever and substrate; 1 µm/s; Tris buffer pH 7.5 with 2.5 mM CaCl2. Conditions: both partners purified.

Test [2] concerns the target T2, human P-cadherin W2A mutant ectodomain (EC1-5) (Homo sapiens, UniProt P22223, point mutant, biotin on the Avi-tag (BirA enzyme)).
T2 construct: signal peptide in the construct; Made with the Q5 site-directed mutagenesis kit from the WT ectodomain construct; also called Pcad W2A; W2A Pcad; source: Expi293 suspension cells, transfected, purified from conditioned media (Ni-NTA), biotinylated with BirA; not shown: Avi-tag, C-terminal, kept
The test is described as follows: far-Western, overlay or dot blot; Western blot: purified Pcad ectodomains boiled in SDS-PAGE sample buffer with 2-mercaptoethanol, run on gels, transferred to PVDF; probed with CQY684. Conditions: both partners purified. Background: A western blot detects proteins with antibodies after separation by electrophoresis.

T2 sequence (P22223 whole entry, looked up, stated change not applied, the tested form may be a part): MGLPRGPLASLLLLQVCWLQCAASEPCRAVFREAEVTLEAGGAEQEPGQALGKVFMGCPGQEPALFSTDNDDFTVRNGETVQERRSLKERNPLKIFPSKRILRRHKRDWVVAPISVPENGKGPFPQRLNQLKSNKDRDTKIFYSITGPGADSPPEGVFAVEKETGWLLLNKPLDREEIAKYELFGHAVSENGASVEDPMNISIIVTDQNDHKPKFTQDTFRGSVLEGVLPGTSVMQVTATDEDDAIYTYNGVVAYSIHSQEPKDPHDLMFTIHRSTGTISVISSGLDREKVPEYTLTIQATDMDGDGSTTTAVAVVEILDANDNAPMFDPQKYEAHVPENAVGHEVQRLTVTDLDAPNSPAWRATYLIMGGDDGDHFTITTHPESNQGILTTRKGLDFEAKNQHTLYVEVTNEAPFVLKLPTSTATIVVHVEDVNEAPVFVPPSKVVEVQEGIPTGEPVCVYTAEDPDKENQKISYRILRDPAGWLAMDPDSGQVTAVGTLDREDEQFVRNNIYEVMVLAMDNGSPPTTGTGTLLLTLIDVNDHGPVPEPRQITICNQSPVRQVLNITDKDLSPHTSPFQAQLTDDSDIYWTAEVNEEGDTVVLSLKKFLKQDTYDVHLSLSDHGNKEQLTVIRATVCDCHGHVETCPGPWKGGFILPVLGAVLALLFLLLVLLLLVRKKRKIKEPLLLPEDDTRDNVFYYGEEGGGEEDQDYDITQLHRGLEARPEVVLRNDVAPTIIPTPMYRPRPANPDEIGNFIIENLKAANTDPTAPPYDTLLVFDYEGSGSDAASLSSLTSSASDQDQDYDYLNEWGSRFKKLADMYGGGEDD
T1 sequence (P22223 108-654): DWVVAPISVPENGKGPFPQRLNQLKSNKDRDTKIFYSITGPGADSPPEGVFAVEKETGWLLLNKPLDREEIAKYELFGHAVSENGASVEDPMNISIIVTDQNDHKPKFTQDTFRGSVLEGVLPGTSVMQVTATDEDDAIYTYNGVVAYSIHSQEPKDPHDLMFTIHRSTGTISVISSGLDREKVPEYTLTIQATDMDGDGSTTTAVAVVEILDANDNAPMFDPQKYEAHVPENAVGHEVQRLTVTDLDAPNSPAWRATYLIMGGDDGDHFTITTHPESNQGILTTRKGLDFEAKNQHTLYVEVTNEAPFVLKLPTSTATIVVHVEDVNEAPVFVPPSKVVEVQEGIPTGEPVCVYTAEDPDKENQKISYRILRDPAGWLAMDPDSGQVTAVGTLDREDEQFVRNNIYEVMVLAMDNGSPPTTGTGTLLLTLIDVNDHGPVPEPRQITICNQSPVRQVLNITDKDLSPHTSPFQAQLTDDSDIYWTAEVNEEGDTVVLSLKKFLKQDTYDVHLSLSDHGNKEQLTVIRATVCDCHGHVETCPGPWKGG

B1: CQY684 Fab (Fab, V domains shown)
VH: QVQLQQSGPGLVKPSQTLSLTCAISGDSVSSQSAAWNWIRQSPSRGLEWLGRIYYRSKWYNDYALSVKSRITINPDTSKNQFSLQLNSVTPEDTAVYYCARGEGYGREGFAIWGQGTLVTVSS
VL: DIQMTQSPSSLSASVGDRVTITCRASQTISNTLAWYQQKPGKAPKLLIYAASNLQSGVPSRFSGSGSGTDFTLTISSLQPEDFATYYCQQYLSWFTFGQGTKVEIK
notes: variable region cloned into a human IgG Fab backbone; the constant parts of the GenScript human IgG Fab backbone may differ from those in PDB 6ZTR; also called CQY Fab; antibody part of the antibody-drug conjugate PCA062; source: recombinantly generated by GenScript
In the case of B1, the binding result in test [1] and in test [2] was “binds” throughout.
